Experiments:
EGFR on A431 cells = molecular target: T1, EGFR on A431 cells (Homo sapiens, UniProt P00533); experiment: A431 cell binding assay; details: purified FN3 domains
T1 construct: A431 cells (American Type Culture Collection, cat. # CRL-1555) over-express EGFR; host or cells: A431
Protocol: To assess the ability of different FN3 domains to bind EGFR in a more physiological context, their ability to bind A431 cells was measured. A431 cells (American Type Culture Collection, cat. # CRL-1555) over-express EGFR with ˜2×10^6 receptors per cell. Cells were plated at 5,000/well in opaque black 96-well plates and allowed to attach overnight at 37° C., in a humidified 5% CO2 atmosphere. FN3 domain-expressing bacterial lysates were diluted 1,000-fold into FACS stain buffer (Becton Dickinson) and incubated for 1 hour at room temperature in triplicate plates. Lysates were removed and cells were washed 3 times with 150 μL/well of FACS stain buffer. Cells were incubated with 50 μL/well of anti-penta His-Alexa488 antibody conjugate (Qiagen) diluted 1:100 in FACS stain buffer for 20 minutes at room temperature. Cells were washed 3 times with 150 μL/well of FACS stain buffer, after which wells were filled with 100 μL of FACS stain buffer and read for fluorescence at 488 nm using an Acumen eX3 reader. […]
A431 cells were plated at 5,000/well in opaque black 96-well plates and allowed to attach overnight at 37° C., in a humidified 5% CO2 atmosphere. […] Cells were washed 3 times with 150 μL/well of FACS stain buffer, after which wells were filled with 100 μL of FACS stain buffer and read for fluorescence at 488 nm using an Acumen eX3 reader. […]

EGFR in NCI-H596 cells = molecular target: T2, EGFR in NCI-H596 cells (Homo sapiens, UniProt P00533); experiment: Inhibition of EGFR phosphorylation in NCI-H596 cells; format: cell-based; details: H596 cells (FIG. 7B)
T2 construct: endogenous in cells; host or cells: NCI-H596
Protocol: NCI-H292, NCI-H441, or NCI-H596 cells were plated in 96 well plates in RPMI medium containing 10% FBS. 24 hours later, medium was replaced with serum free RPMI. […] Cells were treated for 1 h with the monospecific or bispecific molecules and then stimulated with EGF, HGF, or a combination of EGF and HGF for 15 minutes at 37° C., 5% CO2. Cells were lysed with MSD Lysis Buffer and cell signaling was assessed using appropriate MSD Assay plates, according to manufacturer's instructions, as described above.

EGFR in NCI-H292 cells = molecular target: T3, EGFR in NCI-H292 cells (Homo sapiens, UniProt P00533); experiment: Inhibition of EGFR phosphorylation in NCI-H292 cells; format: cell-based; details: H292 cells (FIG. 7A)
T3 construct: EGF-stimulated phosphorylation of EGFR in the human tumor cell line NCI-H292; host or cells: NCI-H292
Protocol: Purified EGFR-binding FN3 domains were tested for their ability to inhibit EGF-stimulated phosphorylation of EGFR in A431 cells at a single concentration. EGFR phosphorylation was monitored using the EGFR phospho(Tyr1173) kit (Meso Scale Discovery). Cells were plated at 20,000/well in clear 96-well tissue culture-treated plates (Nunc) in 100 μL/well of RPMI medium (Gibco) containing GlutaMAX™ with 10% fetal bovine serum (FBS) (Gibco) and allowed to attach overnight at 37° C. in a humidified 5% CO2 atmosphere. Culture medium was removed completely and cells were starved overnight in 100 μL/well of medium containing no FBS at 37° C. in a humidified 5% CO2 atmosphere. […] Signals were detected by addition of 150 μL/well of Read Buffer (Meso Scale Discovery) and reading on a SECTOR® Imager 6000 instrument (Meso Scale Discovery) using manufacturer-installed assay-specific default settings. Percent inhibition of the EGF-stimulated positive control signal was calculated for each EGFR-binding FN3 domain.
NCI-H292, NCI-H441, or NCI-H596 cells were plated in 96 well plates in RPMI medium containing 10% FBS. […] Cells were lysed with MSD Lysis Buffer and cell signaling was assessed using appropriate MSD Assay plates, according to manufacturer's instructions, as described above. […]

Row | EC50 (EGFR on A431 cells) [µM] | inhibition of phosphorylation of EGFR, bispecific vs monospecific (EGFR in NCI-H596 cells) | inhibition of phosphorylation of EGFR, bispecific vs monospecific (EGFR in NCI-H292 cells) | Molecule
1 | > 20 | – | – | P54CR4-31: EGFR-binding FN3 domain, SEQ ID NO: 26 (protein, EGFR binding FN3 domain) LPAPKNLVVSEVTEDSLRLSWTAPDAAFDSFLIQYQESEKVGEAINLTVPGSERSYDLTGLKPGTEYTVSIYGVLGSYVFEHDVMLPLSAEFTT
2 | – | comparable | comparable | ECB5: bispecific P53A1R5-17v2 / P114AR7P94-A3, (GGGGS)4, SEQ ID 54 (protein, bispecific EGFR/cMet binding molecule) MLPAPKNLVVSEVTEDSARLSWADPHGFYDSFLIQYQESEKVGEAIVLTVPGSERSYDLTGLKPGTEYTVSIYGVHNVYKDTNMRGLPLSAIFTTGGGGSGGGGSGGGGSGGGGSMLPAPKNLVVSRVTEDSARLSWTAPDAAFDSFWIRYFEFLGSGEAIVLTVPGSERSYDLTGLKPGTEYVVNIMGVKGGKISPPLSAIFTT

— patent US10662235B2, “Cysteine engineered fibronectin type III domain binding molecules” (Janssen Biotech, Inc., priority 2016, dated 2020)
